In assay [1] the target is T1, S15-extra cellular domain (ECD) monomer (human, UniProt Q6ZMC9 20-263).
T1 construct: also called S15 monomer protein
T1 sequence: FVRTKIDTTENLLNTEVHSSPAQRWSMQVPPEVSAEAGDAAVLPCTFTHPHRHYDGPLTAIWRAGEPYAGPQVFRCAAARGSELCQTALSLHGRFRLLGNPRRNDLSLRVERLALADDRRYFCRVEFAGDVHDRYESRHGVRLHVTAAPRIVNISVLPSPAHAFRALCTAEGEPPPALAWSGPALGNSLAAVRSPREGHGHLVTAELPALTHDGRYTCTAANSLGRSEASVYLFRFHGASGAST
Put plainly: BLI (Octet RED96), mAb on anti-human Fc sensors, S15-ECD monomer in solution, global fit. The protocol:
Optimized KD experiments were performed on a ForteBio Octet RED96 instrument using anti-human Fc capture (AHC, 18-5060; ForteBio) sensors. Assay buffer was PBS containing 0.05% Tween-20 and regeneration buffer was 10 mM glycine (pH 1.5). First the antibodies were loaded at 1 μg/mL for 600 seconds. This was followed by a 60 second baseline step, a 300 second association step in S15-extra cellular domain (ECD) monomer, and finally a 1200 second dissociation step. The monomer concentrations ranged from 100 nM to 1.56 nM in a two-fold dilution series and a blank well was included. Data was processed using ForteBio's Data Analysis Software 7.0; a global fit was used, along with reference well subtraction. Reported values are the average of at least three independent octet runs.
A general note: BLI is a label-free optical method that tracks binding on a fibre tip over time.

Assay [2] has as its target T2, mS15 (Mus musculus).
T2 construct: full length, cell surface; also called mouse Siglec-15
Put plainly: flow cytometry titration, 293T cells transfected with mouse Siglec-15 (293T.mS15). The protocol:
[…] Cells were incubated at 4 degrees C. for 30 minutes, then washed twice with excess FACS buffer. Cells were resuspended in 100 ul FACS buffer and 0.005 ug of anti-mouse IgG-PE secondary antibody was added to samples, incubated for 30 minutes and washed twice with excess FACS buffer. Cells were fixed in fixation buffer (2% formaldehyde in PBS) and subsequently analyzed by flow cytometry.
For orientation: In flow cytometry, cells or beads pass a laser one at a time.

For assay [3], the target named is T3, hS15 (Homo sapiens, UniProt Q6ZMC9).
T3 construct: full length, cell surface; also called human Siglec-15; huS15
T3 sequence (membrane protein on cells, looked up): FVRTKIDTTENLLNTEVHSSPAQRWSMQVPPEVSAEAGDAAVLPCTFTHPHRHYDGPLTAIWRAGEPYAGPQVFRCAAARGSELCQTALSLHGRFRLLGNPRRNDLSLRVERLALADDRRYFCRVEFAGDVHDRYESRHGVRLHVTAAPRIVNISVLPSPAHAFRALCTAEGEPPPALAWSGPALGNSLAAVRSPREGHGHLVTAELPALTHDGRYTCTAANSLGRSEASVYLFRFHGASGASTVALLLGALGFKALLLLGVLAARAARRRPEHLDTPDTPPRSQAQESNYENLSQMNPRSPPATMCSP
Put plainly: flow cytometry, live 293T.hS15 cells, 1 µg mAb/1E05 cells/100 µL, PE secondary. The protocol: Cells were sorted to establish human S15 and mouse S15 stable cell lines. […] 1E05 cells in 100 μL FACS buffer were aliquoted to separate tubes and 1 μg of purified mAb was added. Cells were incubated at 4 degrees C. for 30 minutes, then washed twice with excess FACS buffer. Cells were resuspended in 100 μL FACS buffer and 0.005 μg of anti-mouse IgG-PE secondary antibody was added to samples, incubated for 30 minutes and washed twice with excess FACS buffer. Cells were fixed in fixation buffer and subsequently analyzed by flow cytometry.

What is called Kd is the constant that tells how readily two partners part at equilibrium. The koff is the first-order rate constant of dissociation. Low values mean a long-lived complex, high ones a short-lived complex. One may read the kon as the rate constant with which the complex forms. The EC50 (read off the curve) is the midpoint of the concentration-response curve. Low readings indicate higher potency in that assay, high ones lower potency in that assay.

B1: 5G12 (antibody, V domains shown)
VH: QVQLQQPGAELVKPGASVKMSCKASGYTFTSYWITWVIQRPGQGLEWIGDIYCGSDTMHYNEKFKNKATLTVDTSSSTAYMQLSSLTSEDSAVYYCARWWDYGSSYDYFDYWGQGTTLTVSS
VL: DIKMTQSPSSMYASLGERVTITCKASQDINSYLSWFQQKPGKSPKTLIYRANRLVDGVPSRFSGSGSGQDYSLTISSLEYEDMGIYYCLQYDEFPYTFGGGTKLEIKR
notes: Mouse anti-human Siglec-15 mAb
In assay [1], B1 showed a Kd of 300 pM, a koff of 0.000123 s⁻¹ and a kon of 421000 M⁻¹ s⁻¹. In addition, the “EC50 (read off the curve)” value in assay [2] was about 0.05 µg/mL.

B2: 9A5 (antibody, V domains shown)
VH: HVQLQQSGAELARPGASVKLSCKASGYTFTSYGLIWVKQRTGQGLEWIGEIYPRSGNTYYNEKFKGKATLTADISSSTAYMELRSLTSEDSAVYFCASSSPHGDYWGQGTTLTVSS
VL: not shown
For B2, the binding result in assay [3] is “binds”.

B3: 1H3 (antibody, V domains shown)
VH: QVQLKESGPGLVAPSQSLSITCTVSGFSLSNYGVHWVRQPPGKGLEWLVLIWSDGSTTYNSALKSRLSISKDNSKSQVFLKMNSLQTGDTAMYYCARHPYDDYSGYYYTMDYWGQGTSVTVSS
VL: DIQMTQASSSLSVSLGGRVTITCKASDHINNWLAWYQQKPGNAPRLLISGATSLETGVPSRFSGSGSGKDYTLSITSLQTEDVATYYCQQYWSSPLTFGAGTKLELK
notes: as for B1
Take B3: in assay [1], the Kd worked out at 110 pM, the koff worked out at 3.9e-05 s⁻¹ and the kon is 359000 M⁻¹ s⁻¹. Moreover, the “EC50 (read off the curve)” value in assay [2] is about 0.05 µg/mL.

B4: 6F8 (antibody, V domains shown)
VH: QVQLKQSGPELVRPGASVKISCEASGYTFTDYYVNWVKQRPGRGLEWIGKIGPGSVSIYYNEKFKDKATLTADKSSSTAYMQLSGLTSEDSAVYFCASYYYGFAYWGQGTLVTVSA
VL: DIVMTQAAPSVPVTPGESVSISCRSSKSLLHSNGNTYLYWFLQRPGQSPQLLIYRMSNLASGVPDRFGGSGSGTAFTLRISRVEAEDVGVYYCMQHLEYPYTFGGGTKLEIKR
notes: as for B1
In assay [1], B4 showed a Kd of 440 pM, a koff of 0.000134 s⁻¹ and a kon of 304000 M⁻¹ s⁻¹.

B5: NC63 (antibody, V domains shown)
VH: QVQLQQSGAELARPGASVKLSCKASGYTFTSYGISWVKQRTGQGLEWIGQIYPRSDNTYYNERFKGKATLTADKSSSTAYMALRSLTSEDSAVYFCAREGGPDYWGQGTTLTVSS
VL: not shown
notes: mouse anti-human Siglec-15 mAb; also called 63A
With B5, the binding result in assay [3] is listed as “binds”.

B6: NC28 (antibody, V domains shown)
VH: QVQLQQSGAELARPGASVKLSCKASGYTFISYGITWVKQRTGQGLEWIGEIHPRSGNTYYNENFKDRASLTADKSSSTAYMEVRSLTSEDSAVYFCARGGPGDYWGQGTTLTVSS
VL: not shown
notes: mouse anti-human Siglec-15 mAb; also called 28A
Regarding B6, the binding result in assay [3] is “binds”.
